According to publication PMC12808100 (2025):
Where two headings read alike, the source gives them in different places. Blank lines part the entries; values can stand above or below the binder they belong to. *: point of attachment. Biotin = O=C1N[C@H]2[C@H](CS[C@H]2CCCCC(=O)*)N1; TTDS = Trioxatridecan-succinamic acid linker

Tests used:
[1] = biological target: HA-MBP-POLE2 (human, UniProt P56282 1-527); test: nHU in cell extract, apparent Kd, f = 0.37
[2] = biological target: HA-POLE2 (human, UniProt P56282 1-527); test: nHU, apparent Kd, f = 0.82
[3] = biological target: His6-AviTag-MBP-TEV-POLE2 (human, UniProt P56282 1-527, biotin on the AviTag (BirA co-expressed, biotin in the medium)); test: nHU, apparent Kd
[4] = biological target: T1, catalytic subunit of DNA polymerase ε (POLE), endogenous (human (endogenous in Jurkat and in …, UniProt Q07864 1-2286)); test: nHU, apparent Kd
[5] = biological target: T1, catalytic subunit of DNA polymerase ε …; test: nHU, apparent Kd; remark: listed apart in the source

T1 sequence (Q07864 whole entry): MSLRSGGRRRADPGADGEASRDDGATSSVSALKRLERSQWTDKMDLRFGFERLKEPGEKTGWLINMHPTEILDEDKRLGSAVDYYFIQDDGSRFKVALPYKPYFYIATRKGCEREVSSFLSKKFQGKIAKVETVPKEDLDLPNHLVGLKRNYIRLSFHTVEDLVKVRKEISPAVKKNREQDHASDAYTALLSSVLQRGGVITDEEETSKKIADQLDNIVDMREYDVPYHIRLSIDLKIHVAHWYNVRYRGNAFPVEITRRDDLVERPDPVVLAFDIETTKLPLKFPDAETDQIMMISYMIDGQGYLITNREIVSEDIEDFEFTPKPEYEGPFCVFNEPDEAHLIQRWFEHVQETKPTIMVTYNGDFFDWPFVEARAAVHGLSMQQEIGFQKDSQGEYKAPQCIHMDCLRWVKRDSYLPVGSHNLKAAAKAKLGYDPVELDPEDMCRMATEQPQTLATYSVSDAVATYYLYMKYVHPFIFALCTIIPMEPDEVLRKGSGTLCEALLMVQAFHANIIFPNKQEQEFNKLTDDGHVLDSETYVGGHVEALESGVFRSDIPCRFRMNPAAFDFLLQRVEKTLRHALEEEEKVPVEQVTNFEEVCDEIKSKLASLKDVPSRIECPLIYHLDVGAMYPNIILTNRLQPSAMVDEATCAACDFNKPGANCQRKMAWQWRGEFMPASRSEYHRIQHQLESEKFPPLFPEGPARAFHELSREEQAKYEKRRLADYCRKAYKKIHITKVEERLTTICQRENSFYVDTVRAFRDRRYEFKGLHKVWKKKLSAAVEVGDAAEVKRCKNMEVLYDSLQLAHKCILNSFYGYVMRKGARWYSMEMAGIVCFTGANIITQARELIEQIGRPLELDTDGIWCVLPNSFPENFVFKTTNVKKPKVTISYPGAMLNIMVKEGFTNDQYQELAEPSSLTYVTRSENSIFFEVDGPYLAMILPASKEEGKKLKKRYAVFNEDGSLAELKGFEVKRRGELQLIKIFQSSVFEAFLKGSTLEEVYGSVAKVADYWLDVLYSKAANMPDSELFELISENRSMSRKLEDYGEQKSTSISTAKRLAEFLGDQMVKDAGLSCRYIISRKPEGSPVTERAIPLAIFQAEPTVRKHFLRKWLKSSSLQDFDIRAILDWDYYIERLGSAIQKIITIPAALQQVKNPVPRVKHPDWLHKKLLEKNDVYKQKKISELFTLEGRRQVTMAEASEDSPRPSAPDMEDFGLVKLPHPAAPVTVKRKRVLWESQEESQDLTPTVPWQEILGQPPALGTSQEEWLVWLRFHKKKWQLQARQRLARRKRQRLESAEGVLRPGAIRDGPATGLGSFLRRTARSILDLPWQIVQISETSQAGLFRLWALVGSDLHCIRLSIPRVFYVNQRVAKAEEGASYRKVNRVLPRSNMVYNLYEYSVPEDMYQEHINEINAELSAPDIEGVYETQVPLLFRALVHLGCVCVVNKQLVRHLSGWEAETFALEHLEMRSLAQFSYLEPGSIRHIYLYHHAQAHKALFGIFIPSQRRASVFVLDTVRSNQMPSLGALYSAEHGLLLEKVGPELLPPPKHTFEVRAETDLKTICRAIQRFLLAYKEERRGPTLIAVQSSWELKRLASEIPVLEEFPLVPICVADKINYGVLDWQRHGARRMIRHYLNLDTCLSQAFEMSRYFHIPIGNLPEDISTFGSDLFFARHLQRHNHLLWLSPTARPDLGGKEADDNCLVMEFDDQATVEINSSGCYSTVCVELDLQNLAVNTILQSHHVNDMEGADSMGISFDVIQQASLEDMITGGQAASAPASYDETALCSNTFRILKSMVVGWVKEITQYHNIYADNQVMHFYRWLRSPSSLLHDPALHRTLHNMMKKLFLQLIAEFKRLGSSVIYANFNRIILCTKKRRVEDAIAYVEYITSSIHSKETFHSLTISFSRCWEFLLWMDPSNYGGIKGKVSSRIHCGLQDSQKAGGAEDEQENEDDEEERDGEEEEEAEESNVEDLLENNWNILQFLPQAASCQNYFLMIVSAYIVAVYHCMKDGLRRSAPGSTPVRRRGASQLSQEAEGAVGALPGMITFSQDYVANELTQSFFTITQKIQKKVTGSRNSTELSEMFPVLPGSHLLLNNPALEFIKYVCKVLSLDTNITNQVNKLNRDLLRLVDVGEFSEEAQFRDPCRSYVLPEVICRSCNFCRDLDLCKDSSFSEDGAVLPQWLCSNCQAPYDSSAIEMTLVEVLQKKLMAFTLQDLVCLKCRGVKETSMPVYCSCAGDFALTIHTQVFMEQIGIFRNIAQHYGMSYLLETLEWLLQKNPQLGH
His6-AviTag-MBP-TEV-POLE2, sequence (P56282 whole entry): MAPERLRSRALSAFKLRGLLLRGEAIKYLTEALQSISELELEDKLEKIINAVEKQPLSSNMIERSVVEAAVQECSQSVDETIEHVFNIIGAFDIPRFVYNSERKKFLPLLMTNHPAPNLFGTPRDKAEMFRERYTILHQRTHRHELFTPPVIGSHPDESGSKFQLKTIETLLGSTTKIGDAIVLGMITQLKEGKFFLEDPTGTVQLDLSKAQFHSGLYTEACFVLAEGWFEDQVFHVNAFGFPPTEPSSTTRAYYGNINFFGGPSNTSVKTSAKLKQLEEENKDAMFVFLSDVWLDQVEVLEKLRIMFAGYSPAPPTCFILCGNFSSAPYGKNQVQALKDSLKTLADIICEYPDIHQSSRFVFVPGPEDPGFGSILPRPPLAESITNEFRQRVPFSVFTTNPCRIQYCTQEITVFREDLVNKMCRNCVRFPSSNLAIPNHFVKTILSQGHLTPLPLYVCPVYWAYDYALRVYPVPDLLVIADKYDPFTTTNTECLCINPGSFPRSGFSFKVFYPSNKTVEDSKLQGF
HA-POLE2, sequence (P56282 whole entry): as above
HA-MBP-POLE2, sequence (P56282 whole entry): as above

B1: NPF motif peptide of DONSON (residues 71-88) (peptide)
peptide: {Biotin-TTDS}-GPAAARRNPFARLDNRPR-NH2
Kd [1]: 1300 nM
Kd [2]: 520 nM

B2: HA-ERCC6L, full length, intact NPF motif (natural protein)
chain: MEASRRFPEAEALSPEQAAHYLRYVKEAKEATKNGDLEEAFKLFNLAKDIFPNEKVLSRIQKIQEALEELAEQGDDEFTDVCNSGLLLYRELHNQLFEHQKEGIAFLYSLYRDGRKGGILADDMGLGKTVQIIAFLSGMFDASLVNHVLLIMPTNLINTWVKEFIKWTPGMRVKTFHGPSKDERTRNLNRIQQRNGVIITTYQMLINNWQQLSSFRGQEFVWDYVILDEAHKIKTSSTKSAICARAIPASNRLLLTGTPIQNNLQELWSLFDFACQGSLLGTLKTFKMEYENPITRAREKDATPGEKALGFKISENLMAIIKPYFLRRTKEDVQKKKSSNPEARLNEKNPDVDAICEMPSLSRKNDLIIWIRLVPLQEEIYRKFVSLDHIKELLMETRSPLAELGVLKKLCDHPRLLSARACCLLNLGTFSAQDGNEGEDSPDVDHIDQVTDDTLMEESGKMIFLMDLLKRLRDEGHQTLVFSQSRQILNIIERLLKNRHFKTLRIDGTVTHLLEREKRINLFQQNKDYSVFLLTTQVGGVGLTLTAATRVVIFDPSWNPATDAQAVDRVYRIGQKENVVVYRLITCGTVEEKIYRRQVFKDSLIRQTTGEKKNPFRYFSKQELRELFTIEDLQNSVTQLQLQSLHAAQRKSDIKLDEHIAYLQSLGIAGISDHDLMYTCDLSVKEELDVVEESHYIQQRVQKAQFLVEFESQNKEFLMEQQRTRNEGAWLREPVFPSSTKKKCPKLNKPQPQPSPLLSTHHTQEEDISSKMASVVIDDLPKEGEKQDLSSIKVNVTTLQDGKGTGSADSIATLPKGFGSVEELCTNSSLGMEKSFATKNEAVQKETLQEGPKQEALQEDPLESFNYVLSKSTKADIGPNLDQLKDDEILRHCNPWPIISITNESQNAESNVSIIEIADDLSASHSALQDAQASEAKLEEEPSASSPQYACDFNLFLEDSADNRQNFSSQSLEHVEKENSLCGSAPNSRAGFVHSKTCLSWEFSEKDDEPEEVVVKAKIRSKARRIVSDGEDEDDSFKDTSSINPFNTSLFQFSSVKQFDASTPKNDISPPGRFFSSQIPSSVNKSMNSRRSLASRRSLINMVLDHVEDMEERLDDSSEAKGPEDYPEEGVEESSGEASKYTEEDPSGETLSSENKSSWLMTSKPSALAQETSLGAPEPLSGEQLVGSPQDKAAEATNDYETLVKRGKELKECGKIQEALNCLVKALDIKSADPEVMLLTLSLYKQLNNN
Kd [3]: 2400 nM

B5: HA-WDHD1, full length, intact NPF motif (natural protein)
chain: MPATRKPMRYGHTEGHTEVCFDDSGSFIVTCGSDGDVRIWEDLDDDDPKFINVGEKAYSCALKSGKLVTAVSNNTIQVHTFPEGVPDGILTRFTTNANHVVFNGDGTKIAAGSSDFLVKIVDVMDSSQQKTFRGHDAPVLSLSFDPKDIFLASASCDGSVRVWQISDQTCAISWPLLQKCNDVINAKSICRLAWQPKSGKLLAIPVEKSVKLYRRESWSHQFDLSDNFISQTLNIVTWSPCGQYLAAGSINGLIIVWNVETKDCMERVKHEKGYAICGLAWHPTCGRISYTDAEGNLGLLENVCDPSGKTSSSKVSSRVEKDYNDLFDGDDMSNAGDFLNDNAVEIPSFSKGIINDDEDDEDLMMASGRPRQRSHILEDDENSVDISMLKTGSSLLKEEEEDGQEGSIHNLPLVTSQRPFYDGPMPTPRQKPFQSGSTPLHLTHRFMVWNSIGIIRCYNDEQDNAIDVEFHDTSIHHATHLSNTLNYTIADLSHEAILLACESTDELASKLHCLHFSSWDSSKEWIIDLPQNEDIEAICLGQGWAAAATSALLLRLFTIGGVQKEVFSLAGPVVSMAGHGEQLFIVYHRGTGFDGDQCLGVQLLELGKKKKQILHGDPLPLTRKSYLAWIGFSAEGTPCYVDSEGIVRMLNRGLGNTWTPICNTREHCKGKSDHYWVVGIHENPQQLRCIPCKGSRFPPTLPRPAVAILSFKLPYCQIATEKGQMEEQFWRSVIFHNHLDYLAKNGYEYEESTKNQATKEQQELLMKMLALSCKLEREFRCVELADLMTQNAVNLAIKYASRSRKLILAQKLSELAVEKAAELTATQVEEEEEEEDFRKKLNAGYSNTATEWSQPRFRNQVEEDAEDSGEADDEEKPEIHKPGQNSFSKSTNSSDVSAKSGAVTFSSQGRVNPFKVSASSKEPAMSMNSARSTNILDNMGKSSKKSTALSRTTNNEKSPIIKPLIPKPKPKQASAASYFQKRNSQTNKTEEVKEENLKNVLSETPAICPPQNTENQRPKTGFQMWLEENRSNILSDNPDFSDEADIIKEGMIRFRVLSTEERKVWANKAKGETASEGTEAKKRKRVVDESDETENQEEKAKENLNLSKKQKPLDFSTNQKLSAFAFKQE
Kd [3]: 70 nM

B6: HA-TTF2, full length, intact NPF motifs (natural protein)
chain: MEEVRCPEHGTFCFLKTGVRDGPNKGKSFYVCRADTCSFVRATDIPVSHCLLHEDFVVELQGLLLPQDKKEYRLFFRCIRSKAEGKRWCGSIPWQDPDSKEHSVSNKSQHASETFHHSSNWLRNPFKVLDKNQEPALWKQLIKGEGEEKKADKKQREKGDQLFDQKKEQKPEMMEKDLSSGLVPKKKQSVVQEKKQEEGAEIQCEAETGGTHKRDFSEIKSQQCQGNELTRPSASSQEKSSGKSQDVQRESEPLREKVTQLLPQNVHSHNSISKPQKGGPLNKEYTNWEAKETKAKDGPSIQATQKSLPQGHFQERPETHSVPAPGGPAAQAAPAAPGLSLGEGREAATSSDDEEEDDVVFVSSKPGSPLLFDSTLDLETKENLQFPDRSVQRKVSPASGVSKKVEPSDPVARRVYLTTQLKQKKSTLASVNIQALPDKGQKLIKQIQELEEVLSGLTLSPEQGTNEKSNSQVPQQSHFTKTTTGPPHLVPPQPLPRRGTQPVGSLELKSACQVTAGGSSQCYRGHTNQDHVHAVWKITSEAIGQLHRSLESCPGETVVAEDPAGLKVPLLLHQKQALAWLLWRESQKPQGGILADDMGLGKTLTMIALILTQKNQEKKEEKEKSTALTWLSKDDSCDFTSHGTLIICPASLIHHWKNEVEKRVNSNKLRVYLYHGPNRDSRARVLSTYDIVITTYSLVAKEIPTNKQEAEIPGANLNVEGTSTPLLRIAWARIILDEAHNVKNPRVQTSIAVCKLQACARWAVTGTPIQNNLLDMYSLLKFLRCSPFDEFNLWRSQVDNGSKKGGERLSILTKSLLLRRTKDQLDSTGRPLVILPQRKFQLHHLKLSEDEETVYNVFFARSRSALQSYLKRHESRGNQSGRSPNNPFSRVALEFGSEEPRHSEAADSPRSSTVHILSQLLRLRQCCCHLSLLKSALDPMELKGEGLVLSLEEQLSALTLSELRDSEPSSTVSLNGTFFKMELFEGMRESTKISSLLAELEAIQRNSASQKSVIVSQWTNMLKVVALHLKKHGLTYATIDGSVNPKQRMDLVEAFNHSRGPQVMLISLLAGGVGLNLTGGNHLFLLDMHWNPSLEDQACDRIYRVGQQKDVVIHRFVCEGTVEEKILQLQEKKKDLAKQVLSGSGESVTKLTLADLRVLFGI
Kd [3]: 300 nM

Further lines, results first:

Kd [4]: 14000 nM
B3: NPF motif peptide of WDHD1 (residues 906-924) (peptide)
peptide: SSQGRVNPFKVSASSKEPA
HELM: PEPTIDE1{[O=C1N[C@H]2[C@H](CS[C@H]2CCCCC(=O)[*:2])N1].[O=C(CCCCCN[*:1])[*:2]].S.S.Q.G.R.V.N.P.F.K.V.S.A.S.S.K.E.P.A.[am]}$$$$V2.0
SMILES: CC(C)[C@H](NC(=O)[C@H](CCCCN)NC(=O)[C@H](Cc1ccccc1)NC(=O)[C@@H]1CCCN1C(=O)[C@H](CC(N)=O)NC(=O)[C@@H](NC(=O)[C@H](CCCNC(=N)N)NC(=O)CNC(=O)[C@H](CCC(N)=O)NC(=O)[C@H](CO)NC(=O)[C@H](CO)NC(=O)CCCCCNC(=O)CCCC[C@@H]1SC[C@@H]2NC(=O)N[C@@H]21)C(C)C)C(=O)N[C@@H](CO)C(=O)N[C@@H](C)C(=O)N[C@@H](CO)C(=O)N[C@@H](CO)C(=O)N[C@@H](CCCCN)C(=O)N[C@@H](CCC(=O)O)C(=O)N1CCC[C@H]1C(=O)N[C@@H](C)C(N)=O

Kd [4]: 720 nM
B4: NPF motif peptide of TTF2 (residues 116-143) (peptide)
peptide: HHSSNWLRNPFKVLDKNQEPALWKQLIK
HELM: PEPTIDE1{[O=C1N[C@H]2[C@H](CS[C@H]2CCCCC(=O)[*:2])N1].[O=C(CCCCCN[*:1])[*:2]].H.H.S.S.N.W.L.R.N.P.F.K.V.L.D.K.N.Q.E.P.A.L.W.K.Q.L.I.K.[am]}$$$$V2.0
SMILES: CC[C@H](C)[C@H](NC(=O)[C@H](CC(C)C)NC(=O)[C@H](CCC(N)=O)NC(=O)[C@H](CCCCN)NC(=O)[C@H](Cc1c[nH]c2ccccc12)NC(=O)[C@H](CC(C)C)NC(=O)[C@H](C)NC(=O)[C@@H]1CCCN1C(=O)[C@H](CCC(=O)O)NC(=O)[C@H](CCC(N)=O)NC(=O)[C@H](CC(N)=O)NC(=O)[C@H](CCCCN)NC(=O)[C@H](CC(=O)O)NC(=O)[C@H](CC(C)C)NC(=O)[C@@H](NC(=O)[C@H](CCCCN)NC(=O)[C@H](Cc1ccccc1)NC(=O)[C@@H]1CCCN1C(=O)[C@H](CC(N)=O)NC(=O)[C@H](CCCNC(=N)N)NC(=O)[C@H](CC(C)C)NC(=O)[C@H](Cc1c[nH]c2ccccc12)NC(=O)[C@H](CC(N)=O)NC(=O)[C@H](CO)NC(=O)[C@H](CO)NC(=O)[C@H](Cc1c[nH]cn1)NC(=O)[C@H](Cc1c[nH]cn1)NC(=O)CCCCCNC(=O)CCCC[C@@H]1SC[C@@H]2NC(=O)N[C@@H]21)C(C)C)C(=O)N[C@@H](CCCCN)C(N)=O

Kd [5]: 2500 nM
B7: NPF motif peptide of POLA1 (residues 177-206) (peptide)
peptide: PVMILKKKRSIGASPNPFSVHTATAVPSGK
HELM: PEPTIDE1{[O=C1N[C@H]2[C@H](CS[C@H]2CCCCC(=O)[*:2])N1].[O=C(CCCCCN[*:1])[*:2]].P.V.M.I.L.K.K.K.R.S.I.G.A.S.P.N.P.F.S.V.H.T.A.T.A.V.P.S.G.K.[am]}$$$$V2.0
SMILES: CC[C@H](C)[C@H](NC(=O)[C@H](CO)NC(=O)[C@H](CCCNC(=N)N)NC(=O)[C@H](CCCCN)NC(=O)[C@H](CCCCN)NC(=O)[C@H](CCCCN)NC(=O)[C@H](CC(C)C)NC(=O)[C@@H](NC(=O)[C@H](CCSC)NC(=O)[C@@H](NC(=O)[C@@H]1CCCN1C(=O)CCCCCNC(=O)CCCC[C@@H]1SC[C@@H]2NC(=O)N[C@@H]21)C(C)C)[C@@H](C)CC)C(=O)NCC(=O)N[C@@H](C)C(=O)N[C@@H](CO)C(=O)N1CCC[C@H]1C(=O)N[C@@H](CC(N)=O)C(=O)N1CCC[C@H]1C(=O)N[C@@H](Cc1ccccc1)C(=O)N[C@@H](CO)C(=O)N[C@H](C(=O)N[C@@H](Cc1c[nH]cn1)C(=O)N[C@H](C(=O)N[C@@H](C)C(=O)N[C@H](C(=O)N[C@@H](C)C(=O)N[C@H](C(=O)N1CCC[C@H]1C(=O)N[C@@H](CO)C(=O)NCC(=O)N[C@@H](CCCCN)C(N)=O)C(C)C)[C@@H](C)O)[C@@H](C)O)C(C)C
